Consider one molecule from publication PMC12534491.

The data set deals with T1, Tat peptide (arginine-rich motif) (HIV-1, UniProt P04608).
T1 chain: RKKRRQRRRPPQG
Kind of data set: in-cell NMR.

As for GGGAGCUUGAUCCCGGAAACGGUCGAUCGCUCCC (structured_RNA) [anti-Tat RNA aptamer], the binding result is on record as “binds”.
